Experimental data reported in patent publication US20090318342A1, “Compounds” (IMPERIAL INNOVATIONS LIMITED, priority 2005, published 2009).

T1: gelatinase A (MMP-2) (Homo sapiens, UniProt P08253)
T1 sequence (P08253 110-660): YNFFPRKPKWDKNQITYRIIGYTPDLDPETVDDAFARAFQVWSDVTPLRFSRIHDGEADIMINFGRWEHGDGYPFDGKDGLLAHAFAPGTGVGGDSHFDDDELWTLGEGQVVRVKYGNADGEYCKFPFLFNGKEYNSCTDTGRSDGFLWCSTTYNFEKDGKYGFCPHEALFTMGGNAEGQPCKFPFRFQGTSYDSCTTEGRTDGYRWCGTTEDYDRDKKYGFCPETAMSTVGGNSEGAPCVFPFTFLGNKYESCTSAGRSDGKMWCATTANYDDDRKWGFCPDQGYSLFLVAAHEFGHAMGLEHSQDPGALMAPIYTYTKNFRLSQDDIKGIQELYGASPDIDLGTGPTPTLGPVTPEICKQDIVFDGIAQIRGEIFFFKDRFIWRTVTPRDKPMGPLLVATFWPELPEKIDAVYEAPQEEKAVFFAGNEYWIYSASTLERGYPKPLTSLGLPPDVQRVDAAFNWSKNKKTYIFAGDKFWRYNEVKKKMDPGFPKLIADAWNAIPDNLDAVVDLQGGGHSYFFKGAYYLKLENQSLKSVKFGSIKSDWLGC

T2: human ADAMTS-4 lacking the C-terminal spacer domain (Homo sapiens, UniProt O75173)
T2 construct: Recombinant human ADAMTS-4 lacking the C-terminal spacer domain; made in house
T2 sequence (O75173 213-685 limits assumed): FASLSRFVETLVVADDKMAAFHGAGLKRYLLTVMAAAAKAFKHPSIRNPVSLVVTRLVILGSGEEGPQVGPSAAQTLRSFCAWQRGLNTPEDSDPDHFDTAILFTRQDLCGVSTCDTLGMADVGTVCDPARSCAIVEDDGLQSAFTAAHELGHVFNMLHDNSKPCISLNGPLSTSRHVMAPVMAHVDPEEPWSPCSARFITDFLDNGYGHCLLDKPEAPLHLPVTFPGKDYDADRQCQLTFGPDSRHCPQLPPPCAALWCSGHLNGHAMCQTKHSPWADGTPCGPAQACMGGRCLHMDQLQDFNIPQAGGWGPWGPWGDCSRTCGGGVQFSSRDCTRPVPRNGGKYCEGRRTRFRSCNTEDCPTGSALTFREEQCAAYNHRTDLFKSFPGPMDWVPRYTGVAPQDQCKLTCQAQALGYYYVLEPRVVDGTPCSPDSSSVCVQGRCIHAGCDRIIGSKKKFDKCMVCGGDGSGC


How the values were obtained:
[1] = molecular target: T1, gelatinase A (MMP-2); settings: Table I; data taken from ref. 8; read-out: Ki(app) MMP-2; cited from earlier work
[2] = test system: porcine articular cartilage; test: Retinoic acid-stimulated porcine articular cartilage, GAG release; type: cell-based
Procedure: Porcine articular cartilage from the metacarpophalangeal joints of 3-9 month old pigs is dissected into small shavings approximately 3 mm long and 2-3 mm wide. After dissection, the cartilage is allowed to rest for 24 h at 37° C. under 5% CO2 in DMEM containing penicillin-streptomycin, amphotericin B, and 5% fetal calf serum. The medium is then replaced with fresh media and the cartilage is rested for a further 24-48 h. Each cartilage piece is then placed in one well of a round bottom 96-well plate with 200 μl of serum-free DMEM with or without 10-100 ng/ml IL-1α or 1 μM retinoic acid and various concentrations of each TIMP-3 mutant. After 3 days, all of the conditioned media are harvested and stored at −20° C. until use.
(§1) GAG released into the conditioned media is measured in duplicate using a modification of the dimethylmethylene blue (DMMB) assay as described in Farndale et al.. Shark chondroitin sulfate (0-2.62 μg) is used as standard. The % of total GAG released into the medium is calculated as follows: % of total GAG released=(total GAG in the medium)/(total GAG in the medium+total GAG remaining in the cartilage).

[3] = test system: porcine articular cartilage; test: IL-1α-stimulated porcine articular cartilage degradation, GAG release (DMMB); type: cell-based; settings: IL-1α 10 ng/ml, 3 days
Procedure: FIG. 7. Inhibition of IL-1a stimulated porcine articular cartilage degradation by N-terminal mutants of N-TIMP-3. Porcine articular cartilage pieces were cultured for three days. Cartilage was stimulated with IL-1α (10 ng/ml) with TIMPs at the concentrations indicated. Glycosaminoglycan (GAG) release in the media was measured by dimethyl methylene blue (DMMB).
Porcine articular cartilage from the metacarpophalangeal joints of 3-9 month old pigs is dissected into small shavings approximately 3 mm long and 2-3 mm wide. After dissection, the cartilage is allowed to rest for 24 h at 37° C. under 5% CO2 in DMEM containing penicillin-streptomycin, amphotericin B, and 5% fetal calf serum. The medium is then replaced with fresh media and the cartilage is rested for a further 24-48 h. […]
as §1, with “Shark chondroitin sulfate (0-2.62 μg) is used as standard.” left out
Porcine articular cartilage pieces were cultured for 3 days. […] Glycosaminoglycan (GAG) release in the media was measured by dimethyl methylene blue (DMMB).

[4] = molecular target: T3, catalytic domain of stromelysin 1 (MMP-3(ΔC)) (Homo sapiens, UniProt P08254); settings: Table I; data taken from ref. 8; read-out: Ki(app) MMP-3(ΔC); cited from earlier work
T3 construct: the catalytic domains of stromelysin 1 (MMP-3(ΔC)) and membrane-type 1 MMP (MMP-14)
T3 sequence (P08254 100-272 limits assumed, stated change not applied): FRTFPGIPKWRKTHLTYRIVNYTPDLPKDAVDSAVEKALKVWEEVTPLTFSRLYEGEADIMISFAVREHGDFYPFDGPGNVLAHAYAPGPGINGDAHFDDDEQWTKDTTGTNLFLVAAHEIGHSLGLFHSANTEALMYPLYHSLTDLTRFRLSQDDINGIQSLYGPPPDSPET

[5] = molecular target: T2, human ADAMTS-4 lacking the C-terminal spacer domain; test: ADAMTS-4 inhibition, bovine aggrecan digestion, anti-GELE Western blot; type: biochemical; settings: 0.5 nM ADAMTS-4, 1 mg/ml bovine aggrecan, 37° C., 2 h; read-out: Ki(app) ADAMTS-4
Procedure: ADAMTS-4 lacking the spacer domain (0.5 nM) was incubated with N-TIMP-3 mutants at the concentration indicated for 30 min and then incubated with 1 mg/ml of bovine aggrecan at pH 7.5 for 2 h at 37° C. The reaction was terminated with 10 mM EDTA and samples were deglycosylated and subjected to Western blotting analysis using antibodies that recognise the fragments with the C-terminal GELE1480 as described by Little et al. The bands were quantified by densitometric analyses.
Recombinant human ADAMTS-4 lacking the C-terminal spacer domain was prepared and expressed as described (Kashimagi, M. et al. J. Biol. Chem. 279, 10109-10119, 2004), and bovine cartilage aggrecan was purified according to Hascall and Sajdesa (J. Biol. Chem. 244, 2384-2396, 1969). Antibody that recognized the fragment with the C-terminal GELE was described by Kashiwagi et al (2004). To examine the inhibition of ADAMTS-4 by (-1A) N-TIMP-3 and N-TIMP-3(T2G), 0.5 nM ADAMTS-4 was incubated with a various concentration of the inhibitor for 30 mins at room temperature and then with 1 mg/ml of bovine aggrecan at 37° C. for 2 h. […] The products were then precipated with 10 vol. of acetone and subjected to Western blotting analysis with the anti-GELE antibody as primary antibody and developed as described by Little et al. The staining intensity of the band was quantified by densitometric analysis.

Row | Molecule | Ki [1] [nM] | Inhibition of retinoic acid-stimulated GAG release [2] | Inhibition of IL-1α stimulated cartilage degradation (GAG release) [3] | Ki [4] [nM] | Ki [5] [nM]
1 | N-TIMP-3: N-terminal inhibitory domain of TIMP-3 (residues 1 to 121), C-terminally His-tagged, wild-type (protein) CTCSPSHPQDAFCNSDIVIRAKVVGKKLVKEGPFGTLVYTIKQMKMYRGFTKMPHVQYIHTEASESLCGLKLEVNKYQYLLTGRVYDGKMYTGLCNFVERWDQLTLSQRKGLNYRYHLGCN | 4.3 ± 0.5 | inhibited by N-TIMP-3, but to a lesser extent compared with the IL-1α-stimulated cartilage | dose dependently inhibited degradation | 67 ± 2.8 | 
2 | -1A: N-TIMP-3 mutant with the addition of an N-terminal alanine extension (-1A) (protein) ACTCSPSHPQDAFCNSDIVIRAKVVGKKLVKEGPFGTLVYTIKQMKMYRGFTKMPHVQYIHTEASESLCGLKLEVNKYQYLLTGRVYDGKMYTGLCNFVERWDQLTLSQRKGLNYRYHLGCN |  |  |  |  | 18
